Experimental findings from paper PMC3545062 (Structure (London, England : 1993), 2012) are described below.

The target in series [1] is Cdc13 OB2 domain Y388A (S. cerevisiae) (UniProt P32797). Nature of the series: cross-linking.
For series [2], the target named is Cdc13 OB2 domain L401A (S. cerevisiae) (UniProt P32797). Nature of the series: cross-linking.
Series [3] has as its target Cdc13 OB2 domain P371S (cdc13-1 mutation) (S. cerevisiae) (UniProt P32797). The series can be described thus: cross-linking.
Series [4] concerns the target T1, Cdc13 construct consisting of residues 344-924 (domains OB2-DBD-OB4) (S. cerevisiae, UniProt P32797 344-924).
T1 sequence (looked up): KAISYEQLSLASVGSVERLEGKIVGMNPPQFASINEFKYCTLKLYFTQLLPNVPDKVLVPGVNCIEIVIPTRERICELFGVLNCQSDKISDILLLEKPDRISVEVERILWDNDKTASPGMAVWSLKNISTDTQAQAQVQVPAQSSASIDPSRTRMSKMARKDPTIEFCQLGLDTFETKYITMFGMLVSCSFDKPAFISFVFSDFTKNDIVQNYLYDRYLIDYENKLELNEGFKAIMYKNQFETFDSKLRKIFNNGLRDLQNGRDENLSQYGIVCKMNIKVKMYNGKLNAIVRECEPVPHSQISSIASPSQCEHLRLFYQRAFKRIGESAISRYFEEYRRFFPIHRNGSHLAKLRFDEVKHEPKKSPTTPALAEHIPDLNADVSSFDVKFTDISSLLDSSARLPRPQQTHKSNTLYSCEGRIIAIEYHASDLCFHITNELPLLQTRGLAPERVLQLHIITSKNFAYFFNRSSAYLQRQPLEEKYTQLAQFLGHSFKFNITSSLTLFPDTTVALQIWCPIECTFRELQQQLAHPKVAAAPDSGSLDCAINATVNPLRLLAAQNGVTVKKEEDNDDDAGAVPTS
Nature of the series: ITC.

The series “cross-linking” concerns the molecule itself. The series can be described thus: cross-linking.

In series [1], “Cdc13 OB2 domain Y388A (from UniProt P32797 344-495) (domain or fragment)” yielded a percent reduction of OB2 dimerization (cross-linking) of 70%. As for “Cdc13 OB2 domain L401A (from UniProt P32797 344-495) (domain or fragment)”, in series [2], the percent reduction of OB2 dimerization (cross-linking) turned out to be 50%.

With “Cdc13 OB2 domain P371S (cdc13-1 mutation) (from UniProt P32797 344-495) (domain or fragment)”, in series [3], the percent reduction of OB2 dimerization (cross-linking) was 78%.

B1: C-terminal domain of Stn1, residues 311-494 (domain or fragment, S. cerevisiae, UniProt P38960 311-494, looked up)
chain: NRTSAKSNLMLILLGLQMKEISNSDLYKLKEVRSVVTSLASFLFQQQNVGVMKSFDSLEKEAFRDLVNRLVSQGLIGLKDKTSETFDLLPLKNLFEYAEKRISVLMKLQCYTGTVQLSHVQEKLHLPYITTNGIVDVFKECLKRTKKQYPEVLKNWWIDLDPKNGMEDQNSGILLHLEYAAAYS
B1 returned a Kd in series [4] of 6.4 µM.

B2: S. cerevisiae Cdc13 OB2 domain, wild type (domain or fragment, UniProt P32797 344-495, looked up)
chain: KAISYEQLSLASVGSVERLEGKIVGMNPPQFASINEFKYCTLKLYFTQLLPNVPDKVLVPGVNCIEIVIPTRERICELFGVLNCQSDKISDILLLEKPDRISVEVERILWDNDKTASPGMAVWSLKNISTDTQAQAQVQVPAQSSASIDPSR
Consider B2, for which the “stoichiometry N” value in “cross-linking” is 2.

B3: Cdc13 OB2 domain C383S (domain or fragment, S. cerevisiae, UniProt P32797 344-495, looked up)
chain: KAISYEQLSLASVGSVERLEGKIVGMNPPQFASINEFKYSTLKLYFTQLLPNVPDKVLVPGVNCIEIVIPTRERICELFGVLNCQSDKISDILLLEKPDRISVEVERILWDNDKTASPGMAVWSLKNISTDTQAQAQVQVPAQSSASIDPSR
In the case of B3, the binding result in the series “cross-linking” is on record as “binds”.

A word on the Kd: it is the free concentration of one partner at which half of the binding sites on the other are occupied at equilibrium, for simple one-to-one binding. As a reminder, the stoichiometry N is the number of molecules, sites or subunits per partner or assembly.
